Assay results reported in publication PMC2929534 (Biochemistry, 2010).
Substitutions are numbered along the chain they refer to. Names and notes keep the numbering of the source. Where two headings read alike, the source gives them in different places.

How the values were obtained:
[1] = molecular target: AsiA M1A mutant (bacteriophage T4) (UniProt P32267); test: AUC
[2] = molecular target: AsiA M1A mutant (bacteriophage T4) (UniProt P32267); test: dynamic light scattering
dynamic light scattering = molecular target: the molecule itself; test: dynamic light scattering
AUC [3] = molecular target: the molecule itself; test: AUC
AUC [4] = molecular target: the molecule itself; test: AUC; remark: listed apart in the source
[5] = molecular target: σ^70 subunit of Escherichia coli RNA polymerase (E. coli, UniProt P00579 1-613); test: native gel or EMSA

In the case of “AsiA M1A mutant (from UniProt P32267 1-90) (natural protein)”, the Ka [1] is reported as 3.8e+06 M⁻¹, the Kd [1] is reported as 260 nM and the stoichiometry N [1] is reported as 2. The stoichiometry N [2] was 2.

B1: AsiA protein (wild type) (natural protein, bacteriophage T4, UniProt P32267 1-90, looked up)
chain: MNKNIDTVREIITVASILIKFSREDIVENRANFIAFLNEIGVTHEGRKLNQNSFRKIVSELTQEDKKTLIDEFNEGFEGVYRYLEMYTNK
For B1, the “stoichiometry N” value (dynamic light scattering) was 2, the Ka (AUC [3]) was 2.8e+06 M⁻¹ and the Kd (AUC [3]) was 350 nM.

B2: AsiA K20A mutant (natural protein, bacteriophage T4, UniProt P32267 1-90, looked up)
chain: B1 chain with K20A
B2 was tested, and the “stoichiometry N” value (dynamic light scattering) was 2, the Ka (AUC [3]) was 2.1e+06 M⁻¹ and the Kd (AUC [3]) was 480 nM.

B3: AsiA V14A mutant (natural protein, bacteriophage T4, UniProt P32267 1-90, looked up)
chain: B1 chain with V14A
For B3, the “stoichiometry N” value (dynamic light scattering) was 2, the Ka (AUC [3]) was 820000 M⁻¹ and the Kd (AUC [3]) was 1200 nM.

B4: AsiA F21A mutant (natural protein, bacteriophage T4, UniProt P32267 1-90, looked up)
chain: B1 chain with F21A
B4 was tested, and the “stoichiometry N” value (dynamic light scattering) was 2, the Ka (AUC [3]) was 4.7e+06 M⁻¹ and the Kd (AUC [3]) was 210 nM.

B5: AsiA E39A mutant (natural protein, bacteriophage T4, UniProt P32267 1-90, looked up)
chain: B1 chain with E39A
With B5 the “stoichiometry N” value (dynamic light scattering) was 2, the Ka (AUC [3]) was 5.7e+06 M⁻¹ and the Kd (AUC [3]) was 180 nM.

B6: AsiA I40A mutant (natural protein, bacteriophage T4, UniProt P32267 1-90, looked up)
chain: B1 chain with I40A
B6 was tested, and the “stoichiometry N” value (dynamic light scattering) was 2, the Ka (AUC [3]) was 360000 M⁻¹ and the Kd (AUC [3]) was 2700 nM.

B7: AsiA I17A mutant (natural protein, bacteriophage T4, UniProt P32267 1-90, looked up)
chain: B1 chain with I17A
In the case of B7, the “stoichiometry N” value (dynamic light scattering) is reported as 2, the Ka (AUC [3]) is reported as 200000 M⁻¹ and the Kd (AUC [3]) is reported as 4900 nM.

B8: AsiA I17A/I40A double mutant (natural protein, bacteriophage T4, UniProt P32267 1-90, looked up)
chain: B1 chain with I17A, I40A
B8 showed a Ka (AUC [4]) of 1400 M⁻¹ and a Kd (AUC [4]) of 694000 nM.

B9: AsiA L18A mutant (natural protein, bacteriophage T4, UniProt P32267 1-90, looked up)
chain: B1 chain with L18A
B9: binds [5].
